Experimental data from PMC7496768, “Understanding Substrate Selectivity of Phoslactomycin Polyketide Synthase by Using Reconstituted in Vitro Systems” (Chembiochem, 2020).

Assays:
[1] = tested on: T1, CC(C)(COP(=O)(O)OP(=O)(O)OC[C@H]1O[C@@H](n2cnc3c(N)ncnc32)[C@H](O)[C@@H]1OP(=O)(O)O)[C@@H](O)C(=O)NCCC(=O)NCCSC(=O)CC(=O)O; test: SucC/SucD - pyruvate kinase/lactate dehydrogenase coupled assay of CoA release; format: biochemical, Streptomyces platensis; settings: hydrolysis
T1 construct: KS-AT didomain of PnB second module (Pn PKS module 3), recombinant, purified

[2] = tested on: T1, CC(C)(COP(=O)(O)OP(=O)(O)OC[C@H]1O[C@@H](n2cnc3c(N)ncnc32)[C@H](O)[C@@H]1OP(=O)(O)O)[C@@H](O)C(=O)NCCC(=O)NCCSC(=O)CC(=O)O; test: purified protein, by the assay type; set-up: SucC/SucD-coupled CoA-SH release assay, NADH absorbance 340 nm, apparent KM for transacylation to ACP; settings: pH 7.4; 30.0 °C
Protocol: (§1) Acyltransferase steady state kinetic assay. The assay buffer (200 mM Tris, glycerol 5%v/v, 20 mM MgCl2, pH 7.4) was used to set up all other solutions for this assay. Four master mixes (MM1 to MM4) in 4x concentration were prepared. For MM1 containing the KS-AT proteins (KS-AT or KS-ATS->A mutants), the enzymes were adjusted to 2 µM (for transacylation) or to 4 µM (for hydrolysis) with assay buffer additionally containing 1 mM DTT and 0.1 mg/mL BSA. For MM2 highly pure and concentrated ACP were adjusted to 1600 µM concentration with the assay buffer. Substrate acyl-CoA containing MM3 was prepared with the assay buffer in varying substrate concentrations ranging from (4x concentration indicated here) 1 µM to 1 mM. MM4 contained 1.6 mM NADH, 20 mM ATP, 30 mM succinate, 10 mM phosphoenolpyruvate (stock solutions should be resuspended in assay buffer, or Tris 200 mM, pH 7.4). First, these compounds were mixed and assay buffer was added, leaving volume for Pyruvate Kinase/Lactic Dehydrogenase (PK/LDH), SucC and SucD. After mixing of the compounds, the enzymes were added to MM4 like following: 0.06 mM SucC, 0.06 mM SucD and 20% v/v of PK/LDH (Sigma-Aldrich) (40 µL PK/LDH for 200 µL MM4). To measure transacylation 25 µL MM3, 25 µL MM4, 25 µL MM2 were mixed and incubated 30 °C for one minute. The reaction was started using 25 µL MM1. To measure hydrolysis 25 µL MM3, 25 µL MM4, 25 µL assay buffer were mixed, incubated at 30 °C for one minute. The reaction was started with 25 µL MM1. In both cases after starting the reaction, the mixture was immediately transferred into a 1 cm quartz cuvette, preheated to 30 °C and the absorption was monitored at 340 nm with a Cary 60 UV vis (Agilent technologies). The reactions were measured in three to four technical replicates. Simultaneous to 16 Scheme S1: Steady state kinetic assay, relying on purified proteins. KS-AT didomains and standalone ACPs are used. Upon covalent binding of the acyl-residue to the AT, CoA-SH is released. With no ACP acceptor available, the acyl-residue is subsequently hydrolyzed by nucleophilic attack of water and the AT can bind a new acyl-residue. If holo-ACP is available, the acyl-residue is transferred and the AT can bind a new acyl-residue. Free CoA-SH is converted to succinyl-CoA by E. coli SucC/SucD. In this reaction ADP is produced, which can be used by pyruvate kinase/lactic dehydrogenase (PK/LDH) under NADH consumption. For Michaelis Menten plots with data collected with this assay refer to Figure S6. With the SucC/SucD‐based assay we determined kinetic parameters of PnB_KS‐AT1, PnB_KS‐AT2, PnC_KS‐AT and PnD_KS‐AT for hydrolysis and transacylation (Table S3, Figure S7). As negative control AT catalytic knockouts were used. […] These measurements were independently confirmed by mass spectrometric analysis of acylated ACPs, in which we exclusively detected malonyl‐ACP formation (Tables S1 and S4). […] K M between 4 μM to 11 μM. Rates for transacylation were between 10‐ to 35‐ fold higher (app. k cat of 28 min^−1–140 min^−1) at 2.5 to 7.7 fold higher catalytic efficiency (Table S3).

[3] = tested on: T2, CC(C)(COP(=O)(O)OP(=O)(O)OC[C@H]1O[C@@H](n2cnc3c(N)ncnc32)[C@H](O)[C@@H]1OP(=O)(O)O)[C@@H](O)C(=O)NCCC(=O)NCCSC(=O)CC(=O)O; test: SucC/SucD - pyruvate kinase/lactate dehydrogenase coupled assay of CoA release; format: biochemical, Streptomyces platensis; settings: hydrolysis
T2 construct: KS-AT didomain of PnB first module (Pn PKS module 2), recombinant, purified

[4] = tested on: T2, CC(C)(COP(=O)(O)OP(=O)(O)OC[C@H]1O[C@@H](n2cnc3c(N)ncnc32)[C@H](O)[C@@H]1OP(=O)(O)O)[C@@H](O)C(=O)NCCC(=O)NCCSC(=O)CC(=O)O; test: purified protein, by the assay type; set-up: SucC/SucD-coupled CoA-SH release assay, NADH absorbance 340 nm, apparent KM for transacylation to ACP; settings: pH 7.4; 30.0 °C
Protocol: as §1

[5] = tested on: T3, CC(C)(COP(=O)(O)OP(=O)(O)OC[C@H]1O[C@@H](n2cnc3c(N)ncnc32)[C@H](O)[C@@H]1OP(=O)(O)O)[C@@H](O)C(=O)NCCC(=O)NCCSC(=O)CC(=O)O; test: SucC/SucD - pyruvate kinase/lactate dehydrogenase coupled assay of CoA release; format: biochemical, Streptomyces platensis; settings: hydrolysis
T3 construct: ketosynthase-acyltransferase (KS-AT) didomain of PnC, recombinant, purified
Description: (§2) SucC/SucD - pyruvate kinase/lactate dehydrogenase coupled assay of CoA release on PnC_KS-AT

[6] = tested on: T4, CCCC[C@@H](C(=O)O)C(=O)SCCNC(=O)CCNC(=O)[C@H](O)C(C)(C)COP(=O)(O)OP(=O)(O)OC[C@H]1O[C@@H](n2cnc3c(N)ncnc32)[C@H](O)[C@@H]1OP(=O)(O)O; test: as above; format: biochemical, Streptomyces platensis; settings: hydrolysis
T4 construct: ketosynthase-acyltransferase (KS-AT) didomain of PnC, recombinant, purified
Description: as §2

[7] = tested on: T5, CC[C@@H](C(=O)O)C(=O)SCCNC(=O)CCNC(=O)[C@H](O)C(C)(C)COP(=O)(O)OP(=O)(O)OC[C@H]1O[C@@H](n2cnc3c(N)ncnc32)[C@H](O)[C@@H]1OP(=O)(O)O; test: as above; format: biochemical, Streptomyces platensis; settings: hydrolysis
T5 construct: ketosynthase-acyltransferase (KS-AT) didomain of PnC, recombinant, purified
Description: as §2

[8] = tested on: T6, CCCCCC[C@@H](C(=O)O)C(=O)SCCNC(=O)CCNC(=O)[C@H](O)C(C)(C)COP(=O)(O)OP(=O)(O)OC[C@H]1O[C@@H](n2cnc3c(N)ncnc32)[C@H](O)[C@@H]1OP(=O)(O)O; test: as above; format: biochemical, Streptomyces platensis; settings: hydrolysis
T6 construct: ketosynthase-acyltransferase (KS-AT) didomain of PnC, recombinant, purified
Description: as §2

[9] = tested on: T7, CC(C)CC[C@@H](C(=O)O)C(=O)SCCNC(=O)CCNC(=O)[C@H](O)C(C)(C)COP(=O)(O)OP(=O)(O)OC[C@H]1O[C@@H](n2cnc3c(N)ncnc32)[C@H](O)[C@@H]1OP(=O)(O)O; test: as above; format: biochemical, Streptomyces platensis; settings: hydrolysis
T7 construct: ketosynthase-acyltransferase (KS-AT) didomain of PnC, recombinant, purified
Description: as §2

[10] = tested on: T8, C[C@@H](C(=O)O)C(=O)SCCNC(=O)CCNC(=O)[C@H](O)C(C)(C)COP(=O)(O)OP(=O)(O)OC[C@H]1O[C@@H](n2cnc3c(N)ncnc32)[C@H](O)[C@@H]1OP(=O)(O)O; test: as above; format: biochemical, Streptomyces platensis; settings: hydrolysis
T8 construct: ketosynthase-acyltransferase (KS-AT) didomain of PnC, recombinant, purified
Description: as §2

[11] = tested on: T9, CC(C)(COP(=O)(O)OP(=O)(O)OC[C@H]1O[C@@H](n2cnc3c(N)ncnc32)[C@H](O)[C@@H]1OP(=O)(O)O)[C@@H](O)C(=O)NCCC(=O)NCCSC(=O)CC(=O)O; test: as above; format: biochemical, Streptomyces platensis; settings: hydrolysis
T9 construct: KS-AT didomain of PnD, recombinant, purified

[12] = tested on: T9, CC(C)(COP(=O)(O)OP(=O)(O)OC[C@H]1O[C@@H](n2cnc3c(N)ncnc32)[C@H](O)[C@@H]1OP(=O)(O)O)[C@@H](O)C(=O)NCCC(=O)NCCSC(=O)CC(=O)O; test: purified protein, by the assay type; set-up: SucC/SucD-coupled CoA-SH release assay, NADH absorbance 340 nm, apparent KM for transacylation to ACP; settings: pH 7.4; 30.0 °C
Protocol: as §1

PnB_KS-AT2 (Streptomyces platensis)
Km [1]: 5.2 ± 0.8 µM
kcat [1]: 0.05 ± 0.00233 s⁻¹
Km [2]: 16 ± 1.7 µM
kcat [2]: 1.23 ± 0.0333 s⁻¹

PnB_KS-AT1 (Streptomyces platensis)
Km [3]: 4.3 ± 0.8 µM
kcat [3]: 0.067 ± 0.0025 s⁻¹
Km [4]: 27 ± 2.6 µM
kcat [4]: 2.33 ± 0.0717 s⁻¹
kcat/Km [4]: 86700 M⁻¹ s⁻¹

PnC_KS-AT (Streptomyces platensis)
Km [5]: 53 ± 41 µM
kcat [5]: 0.01 ± 0.0025 s⁻¹
kcat/Km [5]: 167 M⁻¹ s⁻¹
Km [6]: 6.2 ± 1.4 µM
kcat [6]: 0.0117 ± 0.000667 s⁻¹
kcat/Km [6]: 1830 M⁻¹ s⁻¹
Km [7]: 6 ± 1.8 µM
kcat [7]: 0.015 ± 0.001 s⁻¹
kcat/Km [7]: 2500 M⁻¹ s⁻¹
Km [8]: 19 ± 15.5 µM
kcat [8]: 0.00667 ± 0.00133 s⁻¹
kcat/Km [8]: 333 M⁻¹ s⁻¹
Km [9]: 20 ± 6.7 µM
kcat [9]: 0.0133 ± 0.00133 s⁻¹
kcat/Km [9]: 667 M⁻¹ s⁻¹
Km [10]: 73 ± 33 µM
kcat [10]: 0.0233 ± 0.005 s⁻¹
kcat/Km [10]: 333 M⁻¹ s⁻¹

PnD_KS-AT (Streptomyces platensis)
Km [11]: 11.5 ± 3.3 µM
kcat [11]: 0.05 ± 0.0033 s⁻¹
Km [12]: 44 ± 7.2 µM
kcat [12]: 0.467 ± 0.03 s⁻¹
